Among the data in PMC6753213 are stoichiometry N values, retold here.

For assay [1], the target named is AMC011 SOSIP-I53-50A (HIV-1 (AMC011, Clade B)). Nature of the assay: not stated; purified fusion proteins; result shown in Supplementary Fig. 2d, e (not shown).
The target of assay [2] is BG505 SOSIP-I53-50A.1NT1 (HIV-1 (BG505)) (UniProt Q2N0S6). Nature of the assay: SEC; SOSIP fusion protein after PGT145 purification, Superose 6 Increase, Assembly Buffer II (25 mM Tris, 500 mM NaCl, 5% glycerol pH 8.2); trimer and aggregate peaks. In general terms: SEC sorts molecules by how far they enter the pores of the column.
For assay [3] the target is unchanged. Nature of the assay: negative-stain EM.
Assay [4] deals with ConM SOSIP-I53-50A (HIV-1 (consensus of Group M)). Briefly: not stated; purified fusion proteins; result shown in Supplementary Fig. 2d, e (not shown).
Assay [5] addresses ZM197M SOSIP-I53-50A (HIV-1 (ZM197M, Clade C)). Described as above.

The term stoichiometry N denotes a count of units in the complex or per binding partner.

Turning to AMC011 SOSIP-I53-50A (designed binder), the stoichiometry N in assay [1] came out at 3. In the case of “BG505 SOSIP-I53-50A.1NT1 (from UniProt Q2N0S6) (designed binder)”, the stoichiometry N in assay [2] and in assay [3] was 3 each time.

In the case of ConM SOSIP-I53-50A (designed binder), in assay [4], the stoichiometry N came out at 3. Take ZM197M SOSIP-I53-50A (designed binder): in assay [5], the stoichiometry N stood at 3.
